Reference: a protein production outcome set (Wang et al. 2014)

Assay: label from the status in PepcDB records

Sequence | protein production
MEEMGSRSDTIMVASLNRETKEIKLVSVYRDTLLQLSDGTYNKANAAYAYGGEEEAVAMLNKNLDLNIEHYVSVDFSVLVHVIDALGGIDINVEEAENGMDIIPYLNNYVVEVIKNTGVDSAPFTQLGQQHLNGVQATAYARLRYGGGDDYKRTERQRQVLEQIAIKAQKAKLSTINKIIDKVFDNVKTNFTLTETIAYAKDVKSYIFGETQGFPYESTTADLDVGNSVVATDLASDVTKLHQFLFGENDYTPSSTVQSISEDISNSTYDTGESYDTEYDEYGYSQDYSGYDSGYTDNSYGTGGYQDSGYGDGSSGNGYTEDTGGDYVPPSDGGGTDSGSSDSNSQIPDTGTGDSGDTGGESLELEHHHHHH | not failed
MSLLNIKFTDNAVDYLKRREILDKILILITDDGGGKYSIQGGSCSMGAHFSIIWLDKVDPDYPVKIANEQNVKIYTSDFDKTMLGPNMVMDYNAGSLSLSSDEGLLDGSVDIGNGAALLKANKNVQMGINRQCEGHHHHHH | not failed
MTISRTQQIQQLEQEWTSPRWKNITRPYSAEDVIKLRGSVNPECTFAQNGAKKLWELLHGGSRKGYINCLGALTGGQALQQAKAGVEAIYMSGWQVAADANTASSMYPDQSLYPVDSVPAVVKRINNSFRRADQIQWSNNIEPGSKGYTDYFLPIVADAEAGFGGVLNAFELMKAMIEAGAAGVHFEDQLAAVKKCGHMGGKVLVPTQEAIQKLVAARLAADVLGVPTLLIARTDADAADLLTSDCDPYDREFITGDRTAEGFFRTRAGIEQAISRGLAYAPYADLVWCETSTPDLALAKRFADAVHAQFPGKLLAYNCSPSFNWKKNLTDQQIASFQDELSAMGYKYQFITLAGIHSMWFNMFDLAHAYAQGEGMKHYVEKVQQPEFASVDRGYTFASHQQEVGTGYFDKVTNIIQGGASSVTALTGSTEEQQF | not failed
MHNDQEISDANRDWWDSDAQRYHNDHAAYLNGFHWCPEMLPEREAHLLGDISGLNVLEIGCGSAPCSRWLFDNYDAFVTGFDLSMGMLRHSPTDVPLTQADAVNLPYKDSSFDIAFSAFGAFPFIENLGPVLKDIARCLKPHGKLVFSTNHPMRWIFPDDPTEIGLCAELSYFDRSYTERDKNGKITYAEFHRTMGDWIELLNASGFIIDRLIEPEWPTNLTETWGQWSPLRGRIFPGTAIFVTHCRLEHHHHHH | failed
MIRKLDKAEFQQATTLALEVYLQCGQDDFEDEGLESFKSFIFNDKLMNELCIYGAFEENKLIGIMGTKNEGKHISLFFIKKEFHRKGIGKQLFDYSQCDCPANEITVNSSTYAIRFYESLGFEKTNDRQQTNGISYTPMKLISNKLEHHHHHH | not failed
MTALKICLIGGSGFIGRHLAAQLASRGHRITIASRRTGLPDFRVLPSAELVSADIHDPGQLAGLIAGHDAVVSMVGILHGSRAQFEKAHAQLPEKIVDACRRQGVRRLVHVSALGAAQDAPSDYQQTKALGELAVESSGLDWTILRPSVVFGHGDAFLNMFAGLQKRLPVLPLAGAGCKMAPVWVEDVARAVCECLARKETEGRKLDLAGPETYTLAQLARLAGRASGHPRPVFGLPYGLAMLQAALMEWLPGPTLMSRDNVRSLQWDNVSDQPFPSALLGFEPAALSALAPGWLAGRDRNDTASRYRAKAAR | failed
MIKSTNIQAIGSGIMHQINNVYSLTPLSLPMELTPSCNEFYLKTWSEWEKNGTPGEQRNIAFNRLKICLQNQEAELNLSELDLKTLPDLPPQITTLEIRKNLLTHLPDLPPMLKVIHAQFNQLESLPALPETLEELNAGDNKIKELPFLPENLTHLRVHNNRLHILPLLPPELKLLVVSGNRLDSIPPFPDKLEGLALANNFIEQLPELPFSMNRAVLMNNNLTTLPESVLRLAQNAFVNVAGNPL | failed
MLTMQEIKAHYRFTDEDAELLGSLFPLAETNKERLADQFYDYLLGIPETAEFLKEDLVLQKLKQTHQDWFVSLFAGSYDNRYIHNLQKIGHAHVRVGLNAHYVNVAMNVVRQFTLSIIQDNFPDPEERRQRREAVEKILDINLDIMSASYREEEMRKFFVSHRLESKLITATERFTYGLNLILVLALAGVSVSVVGLFIWDIGHIFQGSVEKGILSALGSLLILWMMIELIENEIKILKGGRFNILFFIGVIIVALIREILISTLRHDPLTTQVFLAGTLLVLGVVYFLVSKSQQPYTPH | failed
MGSGKERDTFVYLAKLSEQAERYEEMVESMKSVAKLNVDLTVEERNLLSVGYKNVIGSRRASWRIFSSIEQKEAVKGNDVNVKRIKEYMEKVELELSNICIDIMSVLDEHLIPSASEGESTVFFNKMKGDYYRYLAEFKSGNERKEAADQSLKAYEIATTAAEAKLPPTHPIRLGLALNFSVFYYEIMNAPERACHLAKQAFDEAISELDTLNEESYKDSTLIMQLLRDNLTLWTSDISEEGGDDAHKTNGSAKPGAGGDDAE | failed
SESICNSLNSKLEPTLENLENLDVSAFQAPEDLLDGCRIYLCGFSGRKLDKLRRLINSGGGVRFNQLNEDVTHVIVGDYDDELKQFWNKSAHRPHVVGAKWLLECFSKGYMLSEEPYIH | not failed
MNDRACVSARTRWPLVSVLIPAFNHARFVQRCLDSVLEDPYPCKEIVIIDDGSRDATGEKISQWISDHGHRLPVHFVQRENRGVAATLNELALRARGEYLRLGASDDYLLPGGLDAQVRYLRGHPQKLAVIGDACVVDAHGQLMHASAMRDLHRVDKDLYRSESGIRHAVIRQWAVSGAVALLRRSALDARSRWDESLRIEDWDFFLRLVAGNALGFIDLPVCAYRLHGNNLSKTADVPARIANLCESRQVALRCAPLFDEPDRMLLHAQARYIAAKVEFLRRRPHRIAMHLAVYAGLSLSARWRPKRVARAAELA | failed
MTQHRLNTSQWFGLLGWLVLCYAVAALGAMASIQAASFYAQLQRPAWAPPGWLFGSVWTVLYGMMAVSVWSVWRRGGWAGARVALTLFLVQLALNGLWSWLFFAWHLGAWAFTDIVALWLVLAATIGVFAKRQALAAWLLVPYLAWVSFAAALNFSVWQLNLQMLG | failed
MQTKEKLASLSYLAVKSLLYELNLTPKPGLVDCHNNGAHNDMDFYTFLDSILSLSPFFKKYIEVGWLYHNESPQYLFNQLRKLGIEAEAAMFSATERVNTHKGINFSFALLLGATGSYLAKHIELIQEKRRFMPQDSLTICHLAGEMSMHLIQNDLSHVETKRNLTYGEKLFLQYGLKGLRGEASQGYPSLTQKALPFFRNELLKKQDIQISQLKLLLYLMTFIEDSNIIHRGGIKSWKKVQQEAQTLLEKDLPPYQLKEQLNSYNQILTDRHLSPGGAADLLSLTLYFSFLEQLI | failed
MLRYLALSEAGIAKLPRPQSRCYHSEKGVWGYKPIAQREFQVAEDVRASRNSQANVYRFVEAFRQHGHKLAAVNPISIRTSQQELQELSPAFYGLQTQEPVRTDGLLSGPQVAHNVAQLEQLLKDIYCGRSTSAEFSYVEDIEEREWLARNFETLDQQQLGKSERCEIAELLIKSQAWDNFMALKFPTVKRYGGEGAESMLAFFWQLLRDSVQANIEHVVLAMPHRGRTPLQAALLNMRPAKVFRKLSGASEFSEDIEAMSDVISHFHVSEQLKILGKKLSFSMVRNPSHLEAANPVAMGKTRSKQQARGEGAFGDGSQPFGEHVLNVILHGDAAFAGQGINQECLNMAYVPHFEVGGSLHLIVNNQVGFTTPGDRGRSTAYTSDLAKSIQAPVFHVNGDDPEALARVTSLAFRYQREFRKDIFIDLNCFRRWGHNELDDPTFTNPLVYKIVHQRESVPDLYAQQLAKEQVLSESKAKEMRDEYMKYLGEELALAPAYQPPPSYFEKQWTNFQLAPSKELTYWDTGLDYSLLHYIGQQSVTFPEDFNIHPHLLKTHVNARLKKLENGVKIDWSTAEALAIGSLMYQGHNVRISGEDVGRGTFSHRHAMLVDQQTNEMFIPLNSMEGGNGGKLELAHSILSEEAVLGFEYGMAIDNPNNLIIWEAQFGDFANGAQIIIDTFIVSGETKWMESNALVMLLPHGYDGAASEHSSCRIERFLQLCDSKETSADGDSVNVHIVNPTTPAQYYHVLRRQLARNFRKPLVVVAPKTLLRLPAATSTHEDFQPGTLFHNVLGDTIAKPEQVRKVILCSGKHYYTLAEEREKRQAYDTAILRLESLCPFPIQELQAQLAQYGNVQSFVWSQEEHRNMGAWTFVRPRFENLIGQQLHYCGRCEAPTPATGIGKVHKREVDEIVAAPFEL | failed
